In patent US12031160B2, “Method for the production of glufosinate-ammonium” (ZHEJIANG UNIVERSITY OF TECHNOLOGY, priority 2018, dated 2024):

What was measured:
[1] = substrate: CP(=O)(O)CCC(=O)C(=O)O; assay: purified protein, by the assay type; settings: other: PPO 2-10 mM, NADPH 1-5 mM, pH 7.4, 35° C., double-reciprocal plot
[2] = substrate: NC(=O)C1=CN([C@@H]2O[C@H](COP(=O)(O)OP(=O)(O)OC[C@H]3O[C@@H](n4cnc5c(N)ncnc54)[C@H](OP(=O)(O)O)[C@@H]3O)[C@@H](O)[C@H]2O)C=CC1; assay: purified protein, by the assay type
[3] = substrate: CP(=O)(O)CCC(=O)C(=O)O; assay: Kinetic parameters of purified mutant PPTGDH-L107R-F188P-G239K; format: biochemical, Pseudomonas moorei; settings: other: PPO 2-10 mM, NADPH 1-5 mM, pH 7.4, 35° C., double-reciprocal plot
Experimental: (§1) 1. […] The mutant proteins were purified by Ni-NTA column(1.6×10 cm, Bio-Rad, the USA), and the specific operations were carried out as follows: (1)equilibrate a Ni-NTA column with 5 column volumes of a binding buffer(pH 8.0, 50 mM sodium phosphate buffer containing 0.3 M NaCl) until the baseline is steady; (2)load the sample with a flow rate of 1 mL/min with the amount of the loading sample of 25-40 mg/mL, thereby attaching the target protein to the Ni-NTA column; (3)wash the column with 6 column volumes of buffer A (pH 8.0, 50 mM sodium phosphate buffer containing 0.3 M NaCl and 30 mM imidazole) at a flow rate of 1 mL/min until the baseline is steady; (4)wash the column with buffer B (pH 8.0, 50 mM sodium phosphate buffer containing 0.3 M NaCl and 500 mM imidazole) at a flow rate of 1 mL/min, collect the target protein and dialyze overnight in a pH 7.5, 20 mM phosphate buffer, thereby obtaining the pure glufosinate-ammonium dehydrogenase; and (5)wash the Ni-NTA column with 5 column volumes of a binding buffer(pH 8.0, 50 mM sodium phosphate buffer containing 0.3 M NaCl) until the baseline is steady, and store the Ni-NTA column in 5 column volumes of ultrapure water containing 20% ethanol.
(§2) According to sequential mechanism in glufosinate-ammonium dehydrogenase's catalytic reaction, vmax, Km^A, Km^B can be calculated by a double-reciprocal plot, the results were shown in Table 4.

[4] = substrate: NC(=O)C1=CN([C@@H]2O[C@H](COP(=O)(O)OP(=O)(O)OC[C@H]3O[C@@H](n4cnc5c(N)ncnc54)[C@H](OP(=O)(O)O)[C@@H]3O)[C@@H](O)[C@H]2O)C=CC1; assay: as above; format: biochemical, Pseudomonas moorei; settings: other: PPO 2-10 mM, NADPH 1-5 mM, pH 7.4, 35° C., double-reciprocal plot
Experimental: as §1, §2

[5] = substrate: CP(=O)(O)CCC(=O)C(=O)O; assay: Kinetic parameters of purified mutant PPTGDH-F188P; format: biochemical, Pseudomonas moorei; settings: other: PPO 2-10 mM, NADPH 1-5 mM, pH 7.4, 35° C., double-reciprocal plot
Experimental: as §1, §2

[6] = substrate: NC(=O)C1=CN([C@@H]2O[C@H](COP(=O)(O)OP(=O)(O)OC[C@H]3O[C@@H](n4cnc5c(N)ncnc54)[C@H](OP(=O)(O)O)[C@@H]3O)[C@@H](O)[C@H]2O)C=CC1; assay: Kinetic parameters of purified mutant PPTGDH-F188P; format: biochemical, Pseudomonas moorei; settings: other: PPO 2-10 mM, NADPH 1-5 mM, pH 7.4, 35° C., double-reciprocal plot
Experimental: as §1, §2

[7] = substrate: CP(=O)(O)CCC(=O)C(=O)O; assay: Kinetic parameters of purified mutant PPTGDH-F357G; format: biochemical, Pseudomonas moorei; settings: other: PPO 2-10 mM, NADPH 1-5 mM, pH 7.4, 35° C., double-reciprocal plot
Experimental: as §1, §2

[8] = substrate: NC(=O)C1=CN([C@@H]2O[C@H](COP(=O)(O)OP(=O)(O)OC[C@H]3O[C@@H](n4cnc5c(N)ncnc54)[C@H](OP(=O)(O)O)[C@@H]3O)[C@@H](O)[C@H]2O)C=CC1; assay: Kinetic parameters of purified mutant PPTGDH-F357G; format: biochemical, Pseudomonas moorei; settings: other: PPO 2-10 mM, NADPH 1-5 mM, pH 7.4, 35° C., double-reciprocal plot
Experimental: as §1, §2

[9] = substrate: CP(=O)(O)CCC(=O)C(=O)O; assay: Kinetic parameters of purified mutant PPTGDH-L107R-F188P; format: biochemical, Pseudomonas moorei; settings: other: PPO 2-10 mM, NADPH 1-5 mM, pH 7.4, 35° C., double-reciprocal plot
Experimental: as §1, §2

[10] = substrate: NC(=O)C1=CN([C@@H]2O[C@H](COP(=O)(O)OP(=O)(O)OC[C@H]3O[C@@H](n4cnc5c(N)ncnc54)[C@H](OP(=O)(O)O)[C@@H]3O)[C@@H](O)[C@H]2O)C=CC1; assay: as above; format: biochemical, Pseudomonas moorei; settings: other: PPO 2-10 mM, NADPH 1-5 mM, pH 7.4, 35° C., double-reciprocal plot
Experimental: as §1, §2

[11] = substrate: CP(=O)(O)CCC(=O)C(=O)O; assay: Kinetic parameters of purified mutant PPTGDH-L107R; format: biochemical, Pseudomonas moorei; settings: other: PPO 2-10 mM, NADPH 1-5 mM, pH 7.4, 35° C., double-reciprocal plot
Experimental: as §1, §2

[12] = substrate: NC(=O)C1=CN([C@@H]2O[C@H](COP(=O)(O)OP(=O)(O)OC[C@H]3O[C@@H](n4cnc5c(N)ncnc54)[C@H](OP(=O)(O)O)[C@@H]3O)[C@@H](O)[C@H]2O)C=CC1; assay: Kinetic parameters of purified mutant PPTGDH-L107R; format: biochemical, Pseudomonas moorei; settings: other: PPO 2-10 mM, NADPH 1-5 mM, pH 7.4, 35° C., double-reciprocal plot
Experimental: as §1, §2

[13] = other: PPO 2-10 mM, NADPH 1-5 mM, pH 7.4, 35° C., double-reciprocal plot

B1: Pseudomonas moorei glufosinate-ammonium dehydrogenase E3 (PPTGDH, PPTGDHE3, WP_090325311.1), wild type, SEQ ID NO: 6 (Pseudomonas moorei) (protein)
chain: MIESVESFLARLKKRDPDQPEFHQAVEEVLRSLWPFLEANPRYLTSGILERICEPERAIVFRVSWVDDQGKVQVNRGFRIQMNSAIGPYKGGLRFHPSVNLGVLKFLAFEQTFKNSLTSLPMGGGKGGSDFDPKGKSDAEVMRFCQAFMSELYRHIGADVDVPAGDIGVGAREIGFLFGQYKRLSNQFTSVLTGKGPSYGGSLIRPEATGFGCVYFAEEMLKRRGETVEGKRVAISGSGNVAQYAARKVMDLGGKVISLSDSEGTLYCESGLTEAQWQAVLELKNVQRGRISELAGRFGLEFLAGQRPWGLSCDIALPCATQNELDAEAARALLRNGCTCVAEGANMPTTLEAVDLFIEAGILFAPGKASNAGGVAVSGLEMSQNAMRLLWTGGEVDSKLHAIMQSIHHACVHYGEENGQVNYVKGANIAGFVKVADAMLAQGVV
Km [1]: 3120 µM
kcat [1]: 47.51 ± 2.05 s⁻¹
kcat/Km [1]: 15220 M⁻¹ s⁻¹
Km [2, 13]: 120 µM
kcat/Km ([2]; other: pH 7.4, 35° C.): 395910 M⁻¹ s⁻¹

B2: Pseudomonas moorei glufosinate-ammonium dehydrogenase E3 (SEQ ID NO: 6) variant PPTGDH-L107R-F188P-G239K-F357G, SEQ ID NO: 9 (Pseudomonas moorei; … (protein)
chain: MIESVESFLARLKKRDPDQPEFHQAVEEVLRSLWPFLEANPRYLTSGILERICEPERAIVFRVSWVDDQGKVQVNRGFRIQMNSAIGPYKGGLRFHPSVNLGVLKFRAFEQTFKNSLTSLPMGGGKGGSDFDPKGKSDAEVMRFCQAFMSELYRHIGADVDVPAGDIGVGAREIGFLFGQYKRLSNQPTSVLTGKGPSYGGSLIRPEATGFGCVYFAEEMLKRRGETVEGKRVAISGSKNVAQYAARKVMDLGGKVISLSDSEGTLYCESGLTEAQWQAVLELKNVQRGRISELAGRFGLEFLAGQRPWGLSCDIALPCATQNELDAEAARALLRNGCTCVAEGANMPTTLEAVDLGIEAGILFAPGKASNAGGVAVSGLEMSQNAMRLLWTGGEVDSKLHAIMQSIHHACVHYGEENGQVNYVKGANIAGFVKVADAMLAQGVV
Km [1]: 2110 µM
kcat [1]: 712.6 ± 3.21 s⁻¹
kcat/Km [1]: 337730 M⁻¹ s⁻¹
Km [2, 13]: 52 µM
kcat/Km [2, 13]: 1.3703e+07 M⁻¹ s⁻¹

B3: Pseudomonas moorei glufosinate-ammonium dehydrogenase E3 (SEQ ID NO: 6) variant PPTGDH-L107R-F188P-G239K (Pseudomonas moorei; F188P/G239K/L107R) (protein)
chain: MIESVESFLARLKKRDPDQPEFHQAVEEVLRSLWPFLEANPRYLTSGILERICEPERAIVFRVSWVDDQGKVQVNRGFRIQMNSAIGPYKGGLRFHPSVNLGVLKFRAFEQTFKNSLTSLPMGGGKGGSDFDPKGKSDAEVMRFCQAFMSELYRHIGADVDVPAGDIGVGAREIGFLFGQYKRLSNQPTSVLTGKGPSYGGSLIRPEATGFGCVYFAEEMLKRRGETVEGKRVAISGSKNVAQYAARKVMDLGGKVISLSDSEGTLYCESGLTEAQWQAVLELKNVQRGRISELAGRFGLEFLAGQRPWGLSCDIALPCATQNELDAEAARALLRNGCTCVAEGANMPTTLEAVDLFIEAGILFAPGKASNAGGVAVSGLEMSQNAMRLLWTGGEVDSKLHAIMQSIHHACVHYGEENGQVNYVKGANIAGFVKVADAMLAQGVV
Km [3]: 2090 µM
kcat [3]: 607.5 ± 4.02 s⁻¹
kcat/Km [3]: 290670 M⁻¹ s⁻¹
Km [4]: 45 µM
kcat/Km [4]: 1.35e+07 M⁻¹ s⁻¹

B4: Pseudomonas moorei glufosinate-ammonium dehydrogenase E3 (SEQ ID NO: 6) variant PPTGDH-F188P (Pseudomonas moorei; F188P) (protein)
chain: MIESVESFLARLKKRDPDQPEFHQAVEEVLRSLWPFLEANPRYLTSGILERICEPERAIVFRVSWVDDQGKVQVNRGFRIQMNSAIGPYKGGLRFHPSVNLGVLKFLAFEQTFKNSLTSLPMGGGKGGSDFDPKGKSDAEVMRFCQAFMSELYRHIGADVDVPAGDIGVGAREIGFLFGQYKRLSNQPTSVLTGKGPSYGGSLIRPEATGFGCVYFAEEMLKRRGETVEGKRVAISGSGNVAQYAARKVMDLGGKVISLSDSEGTLYCESGLTEAQWQAVLELKNVQRGRISELAGRFGLEFLAGQRPWGLSCDIALPCATQNELDAEAARALLRNGCTCVAEGANMPTTLEAVDLFIEAGILFAPGKASNAGGVAVSGLEMSQNAMRLLWTGGEVDSKLHAIMQSIHHACVHYGEENGQVNYVKGANIAGFVKVADAMLAQGVV
Km [5]: 4160 µM
kcat [5]: 33.50 ± 1.51 s⁻¹
kcat/Km [5]: 8050 M⁻¹ s⁻¹
Km [6]: 140 µM
kcat/Km [6]: 239290 M⁻¹ s⁻¹

B5: Pseudomonas moorei glufosinate-ammonium dehydrogenase E3 (SEQ ID NO: 6) variant PPTGDH-F357G (Pseudomonas moorei; F357G) (protein)
chain: MIESVESFLARLKKRDPDQPEFHQAVEEVLRSLWPFLEANPRYLTSGILERICEPERAIVFRVSWVDDQGKVQVNRGFRIQMNSAIGPYKGGLRFHPSVNLGVLKFLAFEQTFKNSLTSLPMGGGKGGSDFDPKGKSDAEVMRFCQAFMSELYRHIGADVDVPAGDIGVGAREIGFLFGQYKRLSNQFTSVLTGKGPSYGGSLIRPEATGFGCVYFAEEMLKRRGETVEGKRVAISGSGNVAQYAARKVMDLGGKVISLSDSEGTLYCESGLTEAQWQAVLELKNVQRGRISELAGRFGLEFLAGQRPWGLSCDIALPCATQNELDAEAARALLRNGCTCVAEGANMPTTLEAVDLGIEAGILFAPGKASNAGGVAVSGLEMSQNAMRLLWTGGEVDSKLHAIMQSIHHACVHYGEENGQVNYVKGANIAGFVKVADAMLAQGVV
Km [7]: 3350 µM
kcat [7]: 56.31 ± 1.80 s⁻¹
kcat/Km [7]: 16808 M⁻¹ s⁻¹
Km [8]: 105 µM
kcat/Km [8]: 536000 M⁻¹ s⁻¹

B6: Pseudomonas moorei glufosinate-ammonium dehydrogenase E3 (SEQ ID NO: 6) variant PPTGDH-L107R-F188P (Pseudomonas moorei; F188P/L107R) (protein)
chain: MIESVESFLARLKKRDPDQPEFHQAVEEVLRSLWPFLEANPRYLTSGILERICEPERAIVFRVSWVDDQGKVQVNRGFRIQMNSAIGPYKGGLRFHPSVNLGVLKFRAFEQTFKNSLTSLPMGGGKGGSDFDPKGKSDAEVMRFCQAFMSELYRHIGADVDVPAGDIGVGAREIGFLFGQYKRLSNQPTSVLTGKGPSYGGSLIRPEATGFGCVYFAEEMLKRRGETVEGKRVAISGSGNVAQYAARKVMDLGGKVISLSDSEGTLYCESGLTEAQWQAVLELKNVQRGRISELAGRFGLEFLAGQRPWGLSCDIALPCATQNELDAEAARALLRNGCTCVAEGANMPTTLEAVDLFIEAGILFAPGKASNAGGVAVSGLEMSQNAMRLLWTGGEVDSKLHAIMQSIHHACVHYGEENGQVNYVKGANIAGFVKVADAMLAQGVV
Km [9]: 3220 µM
kcat [9]: 67.10 ± 2.81 s⁻¹
kcat/Km [9]: 20840 M⁻¹ s⁻¹
Km [10]: 112 µM
kcat/Km [10]: 599110 M⁻¹ s⁻¹

B7: Pseudomonas moorei glufosinate-ammonium dehydrogenase E3 (SEQ ID NO: 6) variant PPTGDH-L107R (Pseudomonas moorei; L107R) (protein)
chain: MIESVESFLARLKKRDPDQPEFHQAVEEVLRSLWPFLEANPRYLTSGILERICEPERAIVFRVSWVDDQGKVQVNRGFRIQMNSAIGPYKGGLRFHPSVNLGVLKFRAFEQTFKNSLTSLPMGGGKGGSDFDPKGKSDAEVMRFCQAFMSELYRHIGADVDVPAGDIGVGAREIGFLFGQYKRLSNQFTSVLTGKGPSYGGSLIRPEATGFGCVYFAEEMLKRRGETVEGKRVAISGSGNVAQYAARKVMDLGGKVISLSDSEGTLYCESGLTEAQWQAVLELKNVQRGRISELAGRFGLEFLAGQRPWGLSCDIALPCATQNELDAEAARALLRNGCTCVAEGANMPTTLEAVDLFIEAGILFAPGKASNAGGVAVSGLEMSQNAMRLLWTGGEVDSKLHAIMQSIHHACVHYGEENGQVNYVKGANIAGFVKVADAMLAQGVV
Km [11]: 2430 µM
kcat [11]: 42.02 ± 2.47 s⁻¹
kcat/Km [11]: 17290 M⁻¹ s⁻¹
Km [12]: 102 µM
kcat/Km [12]: 411960 M⁻¹ s⁻¹
